Measurements published in patent US20190381086A1, “INHIBITION OF NEDDYLATION USING GLYCYL-tRNA SYNTHETASE INHIBITORS” (The Scripps Research Institute, priority 2015, published 2019).

Key:
[1] = target: N-terminal GST-tagged GlyRS (human) (UniProt P41250); assay: biolayer interferometry (Octet), GlyRS immobilized
[2] = target: N-terminal GST-tagged GlyRS (human) (UniProt P41250); assay: biolayer interferometry (Octet), GlyRS immobilized, 30°C

Chain of N-terminal GST-tagged GlyRS (human) (P41250 55-739): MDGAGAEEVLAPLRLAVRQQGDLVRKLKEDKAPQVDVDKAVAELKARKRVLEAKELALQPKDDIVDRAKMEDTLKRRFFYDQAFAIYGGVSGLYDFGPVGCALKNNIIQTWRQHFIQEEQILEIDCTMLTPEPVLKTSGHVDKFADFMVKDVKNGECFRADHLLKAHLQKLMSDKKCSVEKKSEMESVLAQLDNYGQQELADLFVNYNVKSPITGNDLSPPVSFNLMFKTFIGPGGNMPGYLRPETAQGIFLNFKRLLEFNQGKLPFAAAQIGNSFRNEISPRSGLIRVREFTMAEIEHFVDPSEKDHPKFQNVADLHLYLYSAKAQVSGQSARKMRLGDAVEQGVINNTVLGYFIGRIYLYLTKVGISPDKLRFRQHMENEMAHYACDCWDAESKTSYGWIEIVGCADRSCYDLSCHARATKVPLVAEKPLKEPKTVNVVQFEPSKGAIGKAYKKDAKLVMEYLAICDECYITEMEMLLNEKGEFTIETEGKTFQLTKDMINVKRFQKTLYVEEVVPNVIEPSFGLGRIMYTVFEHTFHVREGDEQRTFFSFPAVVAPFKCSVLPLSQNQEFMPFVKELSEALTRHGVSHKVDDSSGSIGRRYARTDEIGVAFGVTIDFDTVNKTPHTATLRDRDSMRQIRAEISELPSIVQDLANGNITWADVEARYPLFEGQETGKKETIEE

- fold stronger than the Kd for NEDD8 alone [1]: 30 fold
- fold stronger than the Kd for Ubc12 alone [1]: 100 fold
- Kd [2]: 4.09 nM
Substance: Ubc12^N8: NEDD8-conjugated Ubc12 (C111S, stable ester linkage to His-SUMO-tagged NEDD8) (from UniProt P61081 1-183; Q15843 1-76)
